Here are results for one molecule from US20020065240A1.

The target in this assay is VEGF mitogenic receptors. Nature of the assay: cell-based or functional assay.

B1: recombinant human VEGF145, P15692 207-395 (ligand)
chain: APMAEGGGQNHHEVVKFMDVYQRSYCHPIETLVDIFQEYPDEIEYIFKPSCVPLMRCGGCCNDEGLECVPTEESNITMQIMRIKPHQGQHIGEMSFLQHNKCECRPKKDRARQEKKSVRGKGKGQKRKRKKSRYKSWSVCDKPRR
Regarding B1, the half-maximal activity, HUVEC mitogenesis ([3H]thymidine incorporation) was 17 to 19 ng/mL.
